From the supplement of paper PMC9112550, “Optimization of the antimicrobial peptide Bac7 by deep mutational scanning” (BMC Biology, 2022)

Tested on: Escherichia coli TOP10
Assay: shrunken log2 fold change of peptide-encoding DNA abundance (4.5 h post-induction vs induction); higher = less antimicrobial activity (less host growth inhibition)
Settings: time post-induction: 4.5 h; library: site-saturation at positions 5, 18, 19, 20
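Also: peptides expressed intracellularly from a pBAD plasmid library in pooled LB shake-flask culture, induced with 0.3% L-arabinose, DNA abundance read by NGS, three biological replicates, DESeq2 with apeglm shrinkage.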

Sequence	shrunken log2 fold change
RRIRHRPPRLPRPRPRPKYWPRP	-0.2
RRIRFRPPRLPRPRPRPDSRPRP	0.391
RRIRTRPPRLPRPRPRPDWHPRP	-0.053
RRIRQRPPRLPRPRPRPYGKPRP	-0.217
RRIRDRPPRLPRPRPRPGPWPRP	0.287
RRIRERPPRLPRPRPRPVGLPRP	0.147
RRIRCRPPRLPRPRPRPMQVPRP	-0.0376
RRIRIRPPRLPRPRPRPGNEPRP	-0.0358
RRIRNRPPRLPRPRPRPENVPRP	-0.123
RRIRLRPPRLPRPRPRPLDEPRP	-0.0999
RRIRQRPPRLPRPRPRPVPMPRP	0.132
RRIRVRPPRLPRPRPRPYDCPRP	-0.9
RRIRTRPPRLPRPRPRPKPVPRP	0.217
RRIRSRPPRLPRPRPRPWGDPRP	-0.077
RRIRHRPPRLPRPRPRPSMHPRP	-0.705
RRIRIRPPRLPRPRPRPRRNPRP	-0.0717
RRIRFRPPRLPRPRPRPKFDPRP	-0.0676
RRIRPRPPRLPRPRPRPPIPPRP	0.15
RRIRGRPPRLPRPRPRPLWRPRP	0.625
RRIRLRPPRLPRPRPRPVPIPRP	0.125
RRIRERPPRLPRPRPRPKHFPRP	-0.248
RRIRIRPPRLPRPRPRPYHHPRP	-0.0849
RRIRYRPPRLPRPRPRPLYNPRP	-1.11
RRIRLRPPRLPRPRPRPPDGPRP	0.0617
RRIRNRPPRLPRPRPRPFFGPRP	0.239

Sequence	shrunken log2 fold change
RRIRRRPPRLPRPRPRPCYKPRP	-0.202
RRIRERPPRLPRPRPRPFTEPRP	-0.184
RRIRVRPPRLPRPRPRPKESPRP	-0.0206
RRIRSRPPRLPRPRPRPELVPRP	0.111
RRIRSRPPRLPRPRPRPCEFPRP	-0.227
RRIRYRPPRLPRPRPRPSLPPRP	-0.546
RRIRIRPPRLPRPRPRPACMPRP	-0.0966
RRIRYRPPRLPRPRPRPMWMPRP	-0.00149
RRIRLRPPRLPRPRPRPNLYPRP	-0.38
RRIRARPPRLPRPRPRPEEKPRP	1.22
RRIRHRPPRLPRPRPRPQCIPRP	-0.235
RRIRFRPPRLPRPRPRPTQDPRP	0.33
RRIRQRPPRLPRPRPRPPGTPRP	0.617
RRIRARPPRLPRPRPRPEGLPRP	0.527
RRIRWRPPRLPRPRPRPISEPRP	0.00628
RRIRSRPPRLPRPRPRPSTWPRP	-0.301
RRIRFRPPRLPRPRPRPWKNPRP	0.0106
RRIRSRPPRLPRPRPRPCACPRP	-0.0721
RRIRHRPPRLPRPRPRPVSIPRP	-0.00904
RRIRTRPPRLPRPRPRPLCWPRP	0.0326
RRIRPRPPRLPRPRPRPPYCPRP	-0.12
RRIRPRPPRLPRPRPRPWHAPRP	-0.0857
RRIRLRPPRLPRPRPRPQLLPRP	-0.0176
RRIRRRPPRLPRPRPRPIRKPRP	-0.0416
RRIRNRPPRLPRPRPRPWQIPRP	-0.102

Sequence	shrunken log2 fold change
RRIRVRPPRLPRPRPRPDSYPRP	0.0384
RRIRYRPPRLPRPRPRPKCVPRP	0.0122
RRIRIRPPRLPRPRPRPMTTPRP	0.0113
RRIRYRPPRLPRPRPRPRQMPRP	-0.0779
RRIRTRPPRLPRPRPRPNHKPRP	-0.443
RRIRWRPPRLPRPRPRPDYIPRP	-0.00749
RRIRDRPPRLPRPRPRPGMDPRP	0.216
RRIRRRPPRLPRPRPRPFQPPRP	0.331
RRIRDRPPRLPRPRPRPESDPRP	0.000356
RRIRARPPRLPRPRPRPHRFPRP	-0.176
RRIRMRPPRLPRPRPRPVNKPRP	-0.256
RRIRSRPPRLPRPRPRPNMAPRP	-0.0738
RRIRARPPRLPRPRPRPRFYPRP	-0.0395
RRIRQRPPRLPRPRPRPHCHPRP	-0.164
RRIRNRPPRLPRPRPRPITWPRP	-0.0587
RRIRIRPPRLPRPRPRPNIPPRP	-0.818
RRIRDRPPRLPRPRPRPSNKPRP	-0.325
RRIRHRPPRLPRPRPRPGSAPRP	0.323
RRIRMRPPRLPRPRPRPIVSPRP	-0.0362
RRIRMRPPRLPRPRPRPQREPRP	0.203
RRIRHRPPRLPRPRPRPALMPRP	-0.0655
RRIRDRPPRLPRPRPRPEPRPRP	1
RRIRNRPPRLPRPRPRPHCHPRP	-0.398
RRIRVRPPRLPRPRPRPDSGPRP	-0.0439
RRIRLRPPRLPRPRPRPRLPPRP	0.149

Sequence	shrunken log2 fold change
RRIRRRPPRLPRPRPRPESRPRP	0.0681
RRIRPRPPRLPRPRPRPNVIPRP	-0.451
RRIRHRPPRLPRPRPRPQYRPRP	-0.0967
RRIRQRPPRLPRPRPRPDCMPRP	0.00805
RRIRHRPPRLPRPRPRPTEMPRP	0.181
RRIRNRPPRLPRPRPRPQIQPRP	-0.214
RRIRNRPPRLPRPRPRPGGPPRP	0.37
RRIRDRPPRLPRPRPRPVTGPRP	0.148
RRIRGRPPRLPRPRPRPDYIPRP	-0.144
RRIRSRPPRLPRPRPRPDKKPRP	-0.158
RRIRNRPPRLPRPRPRPCGCPRP	0.0239
RRIRMRPPRLPRPRPRPLSMPRP	-0.289
RRIRRRPPRLPRPRPRPSVIPRP	-0.00654
RRIRKRPPRLPRPRPRPLNSPRP	0.00355
RRIRCRPPRLPRPRPRPCGQPRP	0.143
RRIRCRPPRLPRPRPRPNLCPRP	-0.427
RRIRSRPPRLPRPRPRPTASPRP	0.116
RRIRRRPPRLPRPRPRPPSFPRP	0.251
RRIRIRPPRLPRPRPRPMDEPRP	0.00773
RRIRARPPRLPRPRPRPTQVPRP	0.224
RRIRLRPPRLPRPRPRPWYLPRP	-0.759
RRIRQRPPRLPRPRPRPPCWPRP	0.102
RRIRMRPPRLPRPRPRPPGFPRP	0.619
RRIRHRPPRLPRPRPRPRSPPRP	0.243
RRIRQRPPRLPRPRPRPFPTPRP	-0.0177

Sequence	shrunken log2 fold change
RRIRFRPPRLPRPRPRPQASPRP	0.0447
RRIRDRPPRLPRPRPRPHQPPRP	-0.017
RRIRKRPPRLPRPRPRPQKWPRP	0.0282
RRIRARPPRLPRPRPRPFERPRP	-0.0075
RRIRVRPPRLPRPRPRPETQPRP	0.259
RRIRGRPPRLPRPRPRPEGEPRP	1.97
RRIRTRPPRLPRPRPRPLIAPRP	0.112
RRIRARPPRLPRPRPRPLKVPRP	-0.0599
RRIRERPPRLPRPRPRPFQCPRP	-0.018
RRIRKRPPRLPRPRPRPKMHPRP	0.483
RRIRKRPPRLPRPRPRPTNRPRP	-0.0262
RRIRCRPPRLPRPRPRPFRPPRP	-0.515
RRIRSRPPRLPRPRPRPPVFPRP	0.368
RRIRERPPRLPRPRPRPTPQPRP	0.246
RRIRSRPPRLPRPRPRPDMEPRP	0.0134
RRIRTRPPRLPRPRPRPHFDPRP	-0.385
RRIRKRPPRLPRPRPRPCPAPRP	0.17
RRIRSRPPRLPRPRPRPEPYPRP	0.0691
RRIRFRPPRLPRPRPRPEPKPRP	0.415
RRIRARPPRLPRPRPRPSPSPRP	0.52
RRIRLRPPRLPRPRPRPTPMPRP	0.143
RRIRPRPPRLPRPRPRPGPGPRP	0.621
RRIRCRPPRLPRPRPRPEESPRP	-0.00538
RRIRHRPPRLPRPRPRPHQGPRP	-0.00197
RRIRKRPPRLPRPRPRPPCNPRP	0.189
